According to US9364516B2, “Treatment of fibrosis-related disorders using fibronectin binding proteins and polypeptides” (priority 2010, dated 2016):

Tests used:
type I collagen = experiment: ELISA binding of pUR4 to ECM proteins: collagen I; conditions: plates coated 10 μg/mL, FIG. 7
Experimental: FIG. 7 is a graph depicting the binding of pUR4 to ECM Proteins. 96-well plates were coated with 10 μg/mL type I collagen (COL), denatured type I collagen (dCOL), fibronectin (FN), laminin (LN), vitronectin (VN), or fibrinogen (FG) at 4° C. overnight. pUR4 was added to the wells and serially diluted. Bound pUR4 was detected as described herein. Measurements were done at 405 nm on a Wallac 1420 multilabel counter. Data represents the average of duplicate determinations, and the error bars the range.
96-well tissue culture plates were coated with 10 μg/mL type I collagen, fibronectin, laminin, fibrinogen, or vitronectin overnight at 4° C. Denatured collagens were generated as described (George et al., “Fibronectins are Essential for Heart and Blood Vessel Morphogenesis but are Dispensable for Initial Specification of Precursor Cells,” Blood 90:3073-3081 (1997), which is hereby incorporated by reference in its entirety). Plates were blocked with 1% bovine serum albumin (BSA) in Tris buffered saline (TBS) for 1 hour, then washed with TBS. pUR4 was serially diluted into coated wells, then incubated at room temperature for 90 min. Wells were washed with TBS containing 0.1% Tween 20. […] After washing, peroxidase activity was quantified by using 2,2′-azino-bis-(3-ethylbenthiazoline-[…]). […]

[1] = tested on: left carotid artery of FVB mice; experiment: Carotid ligation model, quantitative immunohistochemistry; type: in vivo, mouse
Experimental: Sections selected from the first millimeter of the carotid artery in each group were used for immunohistochemistry (IHC). Endogenous peroxidase activity was blocked with 3% H2O2, followed by incubation with Dako serum-free blocking solution (Dako; Glostrup, Denmark). The primary antibodies used were: polyclonal anti-fibronectin (Chemicon/Millipore, Billerica, Mass.), polyclonal anti-collagen type I (LF-67; a gift from Dr. Fisher, NIH, Bethesda, Md.), monoclonal anti-proliferating cell nuclear antigen (PCNA) (Sigma, St. Louis, Mo.), polyclonal anti-smooth muscle myosin heavy chain (SMMHC) (Biomedical Technologies Inc., Stoughton, Mass.), monoclonal smooth muscle-actin (SM-actin) (Dako), anti-leukocyte common antigen, CD45 (BD Pharmingen, San Jose, Calif.), monoclonal anti-intercellular adhesion molecule-1 (ICAM-1) (BD Pharmingen), and polyclonal anti-vascular cell adhesion molecule-1 (VCAM-1) (Santa Cruz Biotechnology, Santa Cruz, Calif.). Antigen retrieval for anti-fibronectin and anti-collagen type I antibodies was performed by incubating sections with proteinase K in 0.05M Tris-HCL buffer. Antigen retrieval for CD 45 antibody was performed by incubating sections with 10 mM citrate buffer (pH=6) at 120° C. Sections were then incubated with appropriate biotinylated secondary antibodies followed by avidin-biotin immunoperoxidase system (Vector Laboratories, Burlingame, Calif.). Liquid DAB Substrate Chromogen system (Dako) or Vector Red (Vector) was used for detection. PCNA, CD45, ICAM-1, and VCAM-1-immunostained sections were counterstained with hematoxylin.
Quantitative IHC analysis was performed using Image-Pro Plus software. Data from 3-5 mice were averaged, and the average values ±s.e.m. determined. For fibronectin, collagen type I, SMMHC, and SMα-actin, color digital images were captured using a 40× objective and transformed into gray scale. Sixteen fields of view of equal size per section in the media or adventitia were randomly chosen, and the mean of the optical densities from the sixteen fields of view was determined. Three sections were analyzed per animal. For quantitative comparison of leukocyte infiltration and cell adhesion molecule expression, images were acquired using a 60× objective. The CD45, ICAM-1, and VCAM-1-positive areas were obtained using an automated programmed segmentation procedure in ImagePro. The intima plus media or adventitial regions were traced manually. The percent of the positively stained area to the total traced area was determined. For evaluation of proliferating cells, the percent of PCNA (+) cells to total cells was determined by counting cell numbers in PCNA-stained sections that had been counterstained with hematoxylin. The percent positive cells is reported as the proliferation index. To determine the SMC density, sections were stained with hematoxylin, and cells present in the media were counted. The data is expressed as number of cells/μm^2.
Blood flow in the left carotid artery of 10-week-old FVB/NJ (FVB) mice was reduced by ligating the external and internal carotid arterial branches as described (Korshunov et al., “Flow-Induced Vascular Remodeling in the Mouse: A Model for Carotid Intima-Media Thickening,” Arterioscler. Thromb. Vasc. Biol. 23:2185-2191 (2003), which is hereby incorporated by reference in its entirety). Mice were anesthetized with an intraperitoneal injection of ketamine (80 mg/kg) and xylazine (5 mg/kg) as described in the above-cited referenced. The left common carotid artery was dissected free of the surrounding connective tissue and 50 μL of F-127 pluronic gel (BASF) containing 20 μmol/L pUR4 or III-11C was applied around the carotid artery. […]

C57/Bl6 mice = experiment: Myocardial infarction by permanent coronary ligation; type: in vivo, mouse
Experimental: C57/B16 male mice (12 wks) underwent permanent coronary ligation injury. pUR4 or control peptide (III-11C or del29) was delivered (25 mg/kg/day) in randomized fashion immediately following induction of EKG-verified MI, then once daily via IP injection for 6 days. Serial, investigator-blind echocardiography for 4 weeks was followed by sacrifice; hearts were excised, weighed, and prepared for histological processing. […] FIG. 14B show the % fractional shortening (FS) in control (III-11C, n=8) and pUR4 (n=9) groups.
The therapeutic benefit of pUR4 mediated inhibition of fibronectin polymerization was investigated in a mouse model of myocardial infarction (MI). Male C57/Bl6 mice underwent permanent coronary artery ligation injury, verified at time of surgery by EKG S-T elevation. pUR4 or III-11C were administered via i.p. injection immediately following ligation. Animals subsequently received once daily IP injection for 6 days, and were followed for 4 weeks total. Serial, investigator blind echocardiography assessed cardiac function at baseline, 2 weeks, and 4 weeks.

[2] = 25 mg/kg/day IP, one week of treatment, up to 4 weeks post-MI
[3] = echocardiography post-MI, p<0.05

B1: pUR4: 49-mer peptide derived from the bacterial F1 adhesin, His tagged, SEQ ID NO:1; class I fibronectin polymerization inhibitor (peptide)
chain: MRGSHHHHHHGSKDQSPLAGESGETEYITEVYGNQQNPVDIDKKLPNETGFSGNMVETEDTKLN
modifications: His tag; Bacterial adhesin derived peptide pUR4
Type I collagen
  binding to collagen I: does not bind
[1]; 7 and 14 days after surgery, vs control animals
  accumulation of collagen I and fibronectin in the media and adventitia: dramatic reduction
[1]; 7 days after ligation
  SMC dedifferentiation (SM α-actin and SM myosin heavy chain staining in the media): prevented
  adhesion molecule expression (ICAM-1 and VCAM-1 levels in the vessel wall): dramatic decrease
[1]; 7 days after surgery
  decrease of leukocyte (CD45) infiltration into the intima, media, and adventitia: 80%
  increased fibronectin deposition: totally prevented
  prevention of increase in cell density in the media: 75%
[1]; 7 days after surgery, ligated 6.7×10^−3, sham 5.0×10^−3
  cell density in the media: 5.3×10^−3 cells/mm^2
[1]; 7 days post ligation
  reduction in cell proliferation (PCNA) in the adventitia: 61%
  reduction in cell proliferation (PCNA) in the intima-media: 70%
[1]; 14 days after surgery
  fibronectin and collagen levels vs control peptide-treated animals: still decreased
C57/Bl6 mice; [2]
  cardiac function (% fractional shortening): preserved
  cardiac hypertrophy (heart weight to body weight ratio): reduced
C57/Bl6 mice; 4 weeks post-MI
  fibronectin deposition within the infarcted area and remote myocardium: reduced
C57/Bl6 mice; FIGS. 15 and 16
  collagen and fibronectin deposition post-MI: reduced
C57/Bl6 mice; [3]
  end systolic diameter: 2.91±0.27
  end-diastolic diameter: 4.12±0.22
C57/Bl6 mice; histology 4 weeks post-MI
  cardiac remodeling, infarct size and infarct expansion: reduction
